Laboratory results from publication PMC2807882, “Conservation of DNA-binding specificity and oligomerisation properties within the p53 family” (BMC Genomics, 2009).

B1: Danio rerio p53, full length, with C-terminal FlAsH tag, FlAsH-labelled (natural protein, UniProt P79734 1-373, looked up)
chain: MAQNDSQEFAELWEKNLIIQPPGGGSCWDIINDEEYLPGSFDPNFFENVLEEQPQPSTLPPTSTVPETSDYPGDHGFRLRFPQSGTAKSVTCTYSPDLNKLFCQLAKTCPVQMVVDVAPPQGSVVRATAIYKKSEHVAEVVRRCPHHERTPDGDNLAPAGHLIRVEGNQRANYREDNITLRHSVFVPYEAPQLGAEWTTVLLNYMCNSSCMGGMNRRPILTIITLETQEGQLLGRRSFEVRVCACPGRDRKTEESNFKKDQETKTMAKTTTGTKRSLVKESSSATLRPEGSKKAKGSSSDEEIFTLQVRGRERYEILKKLNDSLELSDVVPASDAEKYRQKFMTKNKKENRESSEPKQGKKLMVKDEGRSDSD
modifications: FlAsH (from FlAsH-EDT2, an arsenic derivative of fluorescein) on the C-terminal CCPGCC tetra-cysteine tag
notes: p53 of zebrafish (Danio rerio), full-length protein, from a Mammalian Gene Collection clone; also called Drp53; Drp53-FlAsH; not shown: 6xHis, N-terminal, cleaved; lipoyl domain, N-terminal, cleaved; FlAsH-tag CCPGCC, C-terminal, kept
B2: Drp53 (zebrafish p53) with C-terminal FlAsH tag, labelled with FlAsH (natural protein, zebrafish (Danio rerio), UniProt P79734 1-373, looked up)
chain: MAQNDSQEFAELWEKNLIIQPPGGGSCWDIINDEEYLPGSFDPNFFENVLEEQPQPSTLPPTSTVPETSDYPGDHGFRLRFPQSGTAKSVTCTYSPDLNKLFCQLAKTCPVQMVVDVAPPQGSVVRATAIYKKSEHVAEVVRRCPHHERTPDGDNLAPAGHLIRVEGNQRANYREDNITLRHSVFVPYEAPQLGAEWTTVLLNYMCNSSCMGGMNRRPILTIITLETQEGQLLGRRSFEVRVCACPGRDRKTEESNFKKDQETKTMAKTTTGTKRSLVKESSSATLRPEGSKKAKGSSSDEEIFTLQVRGRERYEILKKLNDSLELSDVVPASDAEKYRQKFMTKNKKENRESSEPKQGKKLMVKDEGRSDSD
modifications: FlAsH (from FlAsH-EDT2, Lumio Green) on the C-terminal CCPGCC tetra-cysteine tag
notes: not shown: FlAsH tag CCPGCC, C-terminal, kept; 6xHis, N-terminal, cleaved; lipoyl domain, N-terminal, cleaved
B3: Xenopus laevis p53, full length, with C-terminal FlAsH tag, FlAsH-labelled (natural protein, UniProt P07193 1-363, looked up)
chain: MEPSSETGMDPPLSQETFEDLWSLLPDPLQTVTCRLDNLSEFPDYPLAADMTVLQEGLMGNAVPTVTSCAVPSTDDYAGKYGLQLDFQQNGTAKSVTCTYSPELNKLFCQLAKTCPLLVRVESPPPRGSILRATAVYKKSEHVAEVVKRCPHHERSVEPGEDAAPPSHLMRVEGNLQAYYMEDVNSGRHSVCVPYEGPQVGTECTTVLYNYMCNSSCMGGMNRRPILTIITLETPQGLLLGRRCFEVRVCACPGRDRRTEEDNYTKKRGLKPSGKRELAHPPSSEPPLPKKRLVVVDDDEEIFTLRIKGRSRYEMIKKLNDALELQESLDQQKVTIKCRKCRDEIKPKKGKKLLVKDEQPDSE
modifications: FlAsH (from FlAsH-EDT2, an arsenic derivative of fluorescein) on the C-terminal CCPGCC tetra-cysteine tag
notes: p53 of frog (Xenopus laevis), full-length protein, from a Mammalian Gene Collection clone; also called Xlp53; Xlp53-FlAsH; not shown: 6xHis, N-terminal, cleaved; lipoyl domain, N-terminal, cleaved; FlAsH-tag CCPGCC, C-terminal, kept
B4: Xlp53 (Xenopus laevis p53) with C-terminal FlAsH tag, labelled with FlAsH (natural protein, frog (Xenopus laevis), UniProt P07193 1-363, looked up)
chain: MEPSSETGMDPPLSQETFEDLWSLLPDPLQTVTCRLDNLSEFPDYPLAADMTVLQEGLMGNAVPTVTSCAVPSTDDYAGKYGLQLDFQQNGTAKSVTCTYSPELNKLFCQLAKTCPLLVRVESPPPRGSILRATAVYKKSEHVAEVVKRCPHHERSVEPGEDAAPPSHLMRVEGNLQAYYMEDVNSGRHSVCVPYEGPQVGTECTTVLYNYMCNSSCMGGMNRRPILTIITLETPQGLLLGRRCFEVRVCACPGRDRRTEEDNYTKKRGLKPSGKRELAHPPSSEPPLPKKRLVVVDDDEEIFTLRIKGRSRYEMIKKLNDALELQESLDQQKVTIKCRKCRDEIKPKKGKKLLVKDEQPDSE
modifications: FlAsH (from FlAsH-EDT2, Lumio Green) on the C-terminal CCPGCC tetra-cysteine tag
notes: also called frog p53; not shown: FlAsH tag CCPGCC, C-terminal, kept; 6xHis, N-terminal, cleaved; lipoyl domain, N-terminal, cleaved
B5: Drosophila melanogaster p53, full length, with C-terminal FlAsH tag, FlAsH-labelled (natural protein, UniProt Q9N6D8 1-385, looked up)
chain: MYISQPMSWHKESTDSEDDSTEVDIKEDIPKTVEVSGSELTTEPMAFLQGLNSGNLMQFSQQSVLREMMLQDIQIQANTLPKLENHNIGGYCFSMVLDEPPKSLWMYSIPLNKLYIRMNKAFNVDVQFKSKMPIQPLNLRVFLCFSNDVSAPVVRCQNHLSVEPLTANNAKMRESLLRSENPNSVYCGNAQGKGISERFSVVVPLNMSRSVTRSGLTRQTLAFKFVCQNSCIGRKETSLVFCLEKACGDIVGQHVIHVKICTCPKRDRIQDERQLNSKKRKSVPEAAEEDEPSKVRRCIAIKTEDTESNDSRDCDDSAAEWNVSRTPDGDYRLAITCPNKEWLLQSIEGMIKEAAAEVLRNPNQENLRRHANKLLSLKKRAYELP
modifications: FlAsH (from FlAsH-EDT2, an arsenic derivative of fluorescein) on the C-terminal CCPGCC tetra-cysteine tag
notes: p53 of Drosophila melanogaster, full-length protein, amplified from a cDNA library; also called Dmp53; Dmp53-FlAsH; not shown: 6xHis, N-terminal, cleaved; lipoyl domain, N-terminal, cleaved; FlAsH-tag CCPGCC, C-terminal, kept
B6: Dmp53 (Drosophila melanogaster p53) with C-terminal FlAsH tag, labelled with FlAsH (natural protein, fruit fly (Drosophila melanogaster), UniProt Q9N6D8 1-385, looked up)
chain: MYISQPMSWHKESTDSEDDSTEVDIKEDIPKTVEVSGSELTTEPMAFLQGLNSGNLMQFSQQSVLREMMLQDIQIQANTLPKLENHNIGGYCFSMVLDEPPKSLWMYSIPLNKLYIRMNKAFNVDVQFKSKMPIQPLNLRVFLCFSNDVSAPVVRCQNHLSVEPLTANNAKMRESLLRSENPNSVYCGNAQGKGISERFSVVVPLNMSRSVTRSGLTRQTLAFKFVCQNSCIGRKETSLVFCLEKACGDIVGQHVIHVKICTCPKRDRIQDERQLNSKKRKSVPEAAEEDEPSKVRRCIAIKTEDTESNDSRDCDDSAAEWNVSRTPDGDYRLAITCPNKEWLLQSIEGMIKEAAAEVLRNPNQENLRRHANKLLSLKKRAYELP
modifications: FlAsH (from FlAsH-EDT2, Lumio Green) on the C-terminal CCPGCC tetra-cysteine tag
notes: amplified from a cDNA library (Simon Bullock); also called fruit fly p53; not shown: FlAsH tag CCPGCC, C-terminal, kept; 6xHis, N-terminal, cleaved; lipoyl domain, N-terminal, cleaved
B7: Human p63 isoform ΔNp63β, with C-terminal FlAsH tag, FlAsH-labelled (natural protein, UniProt Q9H3D4-4 1-461, looked up)
chain: MLYLENNAQTQFSEPQYTNLGLLNSMDQQIQNGSSSTSPYNTDHAQNSVTAPSPYAQPSSTFDALSPSPAIPSNTDYPGPHSFDVSFQQSSTAKSATWTYSTELKKLYCQIAKTCPIQIKVMTPPPQGAVIRAMPVYKKAEHVTEVVKRCPNHELSREFNEGQIAPPSHLIRVEGNSHAQYVEDPITGRQSVLVPYEPPQVGTEFTTVLYNFMCNSSCVGGMNRRPILIIVTLETRDGQVLGRRCFEARICACPGRDRKADEDSIRKQQVSDSTKNGDGTKRPFRQNTHGIQMTSIKKRRSPDDELLYLPVRGRETYEMLLKIKESLELMQYLPQHTIETYRQQQQQQHQHLLQKQTSIQSPSSYGNSSPPLNKMNSMNKLPSVSQLINPQQRNALTPTTIPDGMGANIPMMGTHMPMAGDMNGLSPTQALPPPLSMPSTSHCTPPPPYPTDCSIVRIWQV
modifications: FlAsH (from FlAsH-EDT2, an arsenic derivative of fluorescein) on the C-terminal CCPGCC tetra-cysteine tag
notes: the whole isoform is surmised; also called ΔNp63β-FlAsH; not shown: 6xHis, N-terminal, cleaved; lipoyl domain, N-terminal, cleaved; FlAsH-tag CCPGCC, C-terminal, kept
B8: human ΔNp63β with C-terminal FlAsH tag, labelled with FlAsH (natural protein, UniProt Q9H3D4-4 1-461, looked up)
chain: MLYLENNAQTQFSEPQYTNLGLLNSMDQQIQNGSSSTSPYNTDHAQNSVTAPSPYAQPSSTFDALSPSPAIPSNTDYPGPHSFDVSFQQSSTAKSATWTYSTELKKLYCQIAKTCPIQIKVMTPPPQGAVIRAMPVYKKAEHVTEVVKRCPNHELSREFNEGQIAPPSHLIRVEGNSHAQYVEDPITGRQSVLVPYEPPQVGTEFTTVLYNFMCNSSCVGGMNRRPILIIVTLETRDGQVLGRRCFEARICACPGRDRKADEDSIRKQQVSDSTKNGDGTKRPFRQNTHGIQMTSIKKRRSPDDELLYLPVRGRETYEMLLKIKESLELMQYLPQHTIETYRQQQQQQHQHLLQKQTSIQSPSSYGNSSPPLNKMNSMNKLPSVSQLINPQQRNALTPTTIPDGMGANIPMMGTHMPMAGDMNGLSPTQALPPPLSMPSTSHCTPPPPYPTDCSIVRIWQV
modifications: FlAsH (from FlAsH-EDT2, Lumio Green) on the C-terminal CCPGCC tetra-cysteine tag
notes: also called human p63; not shown: FlAsH tag CCPGCC, C-terminal, kept; 6xHis, N-terminal, cleaved; lipoyl domain, N-terminal, cleaved
B9: Human p73 isoform ΔNp73β, with C-terminal FlAsH tag, FlAsH-labelled (natural protein, UniProt O15350-9 1-450, looked up)
chain: MLYVGDPARHLATAQFNLLSSTMDQMSSRAASASPYTPEHAASVPTHSPYAQPSSTFDTMSPAPVIPSNTDYPGPHHFEVTFQQSSTAKSATWTYSPLLKKLYCQIAKTCPIQIKVSTPPPPGTAIRAMPVYKKAEHVTDVVKRCPNHELGRDFNEGQSAPASHLIRVEGNNLSQYVDDPVTGRQSVVVPYEPPQVGTEFTTILYNFMCNSSCVGGMNRRPILIIITLEMRDGQVLGRRSFEGRICACPGRDRKADEDHYREQQALNESSAKNGAASKRAFKQSPPAVPALGAGVKKRRHGDEDTYYLQVRGRENFEILMKLKESLELMELVPQPLVDSYRQQQQLLQRPSHLQPPSYGPVLSPMNKVHGGMNKLPSVNQLVGQPPPHSSAATPNLGPVGPGMLNNHGHAVPANGEMSSSHSAQSMVSGSHCTPPPPYHADPSLVRTWGP
modifications: FlAsH (from FlAsH-EDT2, an arsenic derivative of fluorescein) on the C-terminal CCPGCC tetra-cysteine tag
notes: the whole isoform is surmised; also called ΔNp73β-FlAsH; not shown: 6xHis, N-terminal, cleaved; lipoyl domain, N-terminal, cleaved; FlAsH-tag CCPGCC, C-terminal, kept
B10: human ΔNp73β with C-terminal FlAsH tag, labelled with FlAsH (natural protein, UniProt O15350-9 1-450, looked up)
chain: MLYVGDPARHLATAQFNLLSSTMDQMSSRAASASPYTPEHAASVPTHSPYAQPSSTFDTMSPAPVIPSNTDYPGPHHFEVTFQQSSTAKSATWTYSPLLKKLYCQIAKTCPIQIKVSTPPPPGTAIRAMPVYKKAEHVTDVVKRCPNHELGRDFNEGQSAPASHLIRVEGNNLSQYVDDPVTGRQSVVVPYEPPQVGTEFTTILYNFMCNSSCVGGMNRRPILIIITLEMRDGQVLGRRSFEGRICACPGRDRKADEDHYREQQALNESSAKNGAASKRAFKQSPPAVPALGAGVKKRRHGDEDTYYLQVRGRENFEILMKLKESLELMELVPQPLVDSYRQQQQLLQRPSHLQPPSYGPVLSPMNKVHGGMNKLPSVNQLVGQPPPHSSAATPNLGPVGPGMLNNHGHAVPANGEMSSSHSAQSMVSGSHCTPPPPYHADPSLVRTWGP
modifications: FlAsH (from FlAsH-EDT2, Lumio Green) on the C-terminal CCPGCC tetra-cysteine tag
notes: also called human p73; not shown: FlAsH tag CCPGCC, C-terminal, kept; 6xHis, N-terminal, cleaved; lipoyl domain, N-terminal, cleaved

Key:
[1] = biological target: the molecule itself; test: AUC; sedimentation velocity with fluorescence detection, FlAsH-labelled protein at 5-500 nM (monomer); 150 mM NaCl, 25 mM phosphate pH 7.2, 10% glycerol, BSA 0.2 mg/mL, 1 mM β-mercaptoethanol, 10°C; tetramer to dimers; Kd expressed in concentration of monomer
[2] = biological target: the molecule itself; test: AUC; sedimentation velocity with fluorescence detection, FlAsH-labelled protein at 5-500 nM; 150 mM NaCl, 25 mM phosphate pH 7.2, 10% glycerol, BSA 0.2 mg/mL, 1 mM beta-mercaptoethanol, 10°C; tetramer to dimers; Kd expressed in concentration of monomer
[3] = biological target: the molecule itself; test: AUC; sedimentation velocity with fluorescence detection, FlAsH-labelled protein at 5-500 nM (monomer); 150 mM NaCl, 25 mM phosphate pH 7.2, 10% glycerol, BSA 0.2 mg/mL, 1 mM β-mercaptoethanol, 10°C; dimer to monomers; Kd expressed in concentration of monomer
[4] = biological target: the molecule itself; test: AUC; sedimentation velocity with fluorescence detection, FlAsH-labelled protein at 5-500 nM (also at 60 k rpm); 150 mM NaCl, 25 mM phosphate pH 7.2, 10% glycerol, BSA 0.2 mg/mL, 1 mM beta-mercaptoethanol, 10°C; dimer to monomers; Kd expressed in concentration of monomer

| Protein | Kd [1] [nM] | stoichiometry N [2] | also measured |
| --- | --- | --- | --- |
| B1 | 3.6 |  |  |
| B2 |  | 4 |  |
| B3 | 27.6 |  |  |
| B4 |  | 4 | fold weaker self-association (dimer-tetramer equilibrium) than Dmp53, Drp53 and ΔNp73β [2]: ~10 fold |
| B5 | 1.7 |  |  |
| B6 |  | 4 |  |
| B7 | 12.2 |  | Kd [3]: 9.3 nM |
| B8 |  | 4 | fold weaker self-association (dimer-tetramer equilibrium) than Dmp53, Drp53 and ΔNp73β [2]: ~5 fold; fold weaker primary dimer (monomer-dimer equilibrium) than human p53 [4]: 9 fold |
| B9 | 2.4 |  | Kd [3]: 5.7 nM |
| B10 |  | 4 | fold weaker primary dimer (monomer-dimer equilibrium) than human p53 [4]: 6 fold |
